Measured values from the nanobody polyreactivity screen of Harvey et al. (2022).

Assay: yeast display, Sf9 membrane polyspecificity reagent, FACS + sequencing; frameworks hold sequencing errors
Method in brief: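 Using colony PCR, genes from sorted yeast display clones were amplified, then sequenced on MiSeq at 2 × 250 and filtered by CDR length. The clones had been stained with 10% biotinylated, detergent-solubilized Sf9 membrane reagent for 1 hour at 4 °C and sorted by FACS into low and high (top ~1%) gates on anti-HA and streptavidin fluorescence. Polyreactivity labels come from the gate of origin.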

| Sequence | polyreactivity (PSR sort gate) |
| --- | --- |
| QVQLVESGGGIVQAGGSLRLSIAASGNILNGNVMGWSRPEPGKERELVAAITSGGDTYYADSVKGRFTISRDNAKNTVYFQMNSLKPEDTAVYYCAADRPGQPKYEYWGQGTQVTVSS | low polyreactivity |
| QVQLVESGGGLVQAGGSLRLSCAASGFTLSRYAMGWYRQAPGKERELVAAIRWSGGSTYYADSVKGRFTISRDNAKNTVYLQMNSLKPEDTAVYYCATRYYLKFLDGYNYWGQGTQVTVSS | high polyreactivity |
| QVQLVESGGGLVQAGGSLRLICAASGITFEVYAMGRYRLAPGKEMELVAVITSVGSTNYADSVKGRFTISRDNAKNTVYLQMNSLKPEDPAVYYCAALKWTVRRFNPYTYYRYDYWGQGTQVTVSS | low polyreactivity |
| QVQLVESGGGLVQAGGSLRLSCAAYGSIISYTMGWYRQAPGKERELVAAITSGRITYYADSVKGRFTISRDNAKNTVSLQMNRLKQEDTAVYYCNNDVGFTRPLYYWGQGTQVTVSS | low polyreactivity |
| QVQLVESGGGLVQAGGSLRLSCAASGLIFARNAMVWYRQAPGKERELVAAIAKRGGSTFYADSVKVRFTISRDNAKNTVYLQMNSLKPEDTAVYYCNARSSETWHGDYWGQGTQVTVSS | high polyreactivity |
| QVQLVESGGGLVQAGGSLRLSCAASGRIFSYYVMGWSRQAPGKERELVAAISYRGGGTYYADSVKGRFTISRDNAKNTVYLQMNSLKPEDTAVYYCNADTYSNTYRAYDYWGQGTQVTVSS | low polyreactivity |
| QVQLVESGGGLVQAGGSLRLSCAASGSIFRLNAMGWYRQAPGKERELVAAISVSGTRTYYADSVKGRFTISRDNAKNIVYLQMNSLKPEDTAVYYCAARVYKGQGKGDYWGQGTQVTVSS | high polyreactivity |
| QVQLVESGGGLVQAGGSLRLSCAASGNIFDLYAMGWYRQAPGKERELVAAITRSSSRTYYADSVKGRFTISRDNAKNTVYLQMNSLKPEDTAVYYCNKRWITSYYTRYDYWGQGTQVTVSS | high polyreactivity |
| QDQLVESGGGLVQAGGSLRLSCAASGLIFYGYVMGWYRQAPGKERELVAGISRNSGSTYYADSVKGRFTISRDNAKNTVYLQMNSLKPEDTAVYYCAALKFEAWAGEDYWGQGTQVTVSS | low polyreactivity |
| QVQLVESGGGLVQAGGSLRLSCAASGSSIYSYAMGWYRQEPGKERELVAAITTSGGSTYYADSVKGRFTISRDNAKNTDYLQMNSLKPEDTAVYYCNAYFIYEGGWYYKAQYDYWGQGTQVTVSS | low polyreactivity |
| QVQLVESGGGLVQAGGSLRLSCAASGSTFVSNAMGWDRQAPGKERELVAAISSSGGRTSYADSEKGRFTISRDNAKNTVYLQMTSPKPEDTAVYYCAARFKSVDYVQYYYWGQGTQVTVSS | low polyreactivity |
| QVQLVKSGGGLVQAGGSLRLSCAASGRIIDRNAMGWYRQAPGKERELVAAISSSGSTNYADSVKGRFTISRDNAKNTVYLQMNSLKPQDTAVYYCAARWRSVLAAGTRPVSFDYWGQGTQVTVSS | low polyreactivity |
| QVQLVESGGGLVQAGGSLRLSCAASGFTFRTYAMGWYTQAPGKERELVADISGSGGSTYYADSVKGRFTISRDNAKNTVYLQMNSLKPEDTAVYYCAADYASWSNWGYEYWGQGTQVTVSS | high polyreactivity |
| QVQLVESGGGLVQAGGSLRLSCAASGRILYVYAMGWYIQAPGKERELVAAITSGGSTHYADSVKGRFTISRDNAKNTVYLQMNSLKPEDTAVYYCAAYTLRNRGGFNYWGQGTQVTVSS | high polyreactivity |
| QVQLVESCGGLVQAGGSLRLSCAASGLTFLAYDMGWYRQAPGKEREFVAAITGGGSTHYADSVKGRFTISRDNAKTTVYLQMNSLKTEDTAVYYCNADVYVYSVTSHYPSYRLDYWGQGTQVTVSS | high polyreactivity |
| QVQLVESGGGLVQAGGSLRLSCDASGRMFALYAMGWYRQAPGKERELVAAITWRGGRTRYADSVKGRFTISRDNAKNTVYLQMTSLKPEDTAVYYCNKRLFASRYDYWGQGTQVTVSS | high polyreactivity |
| QFKLVESGGGLVQAGGSLRLICAASGITLNRNAMGRYRQAPGKEMELVARISRRGGTTYYADSVKGRFTISRDKAKNTVYLQMNSLKPEDTAVYYCNAGPYGGNPFDYWGQGTQVTVSS | high polyreactivity |
| QVELQVSGGGLVRAGGSLRLSCAASGNIFDADIMGWYRQAPGKERELVASITGGGSTSYAESAKGRFTISRDNAKNAVYLQMNRLKPEDTAVYYCAAAAYYADFDYWGQGTQVTVSS | low polyreactivity |
| QVQLVESWGGLVQAGGSLRLSCAASGGTFRKNTMGWYRQAPGKERELVAAITRRADRTYYADSVKGRFTISRDNAKHTVYLQMNSLKPEDTAVYYCNAPPPPTKVGGYDYWGQGTQVTVSS | high polyreactivity |
| QVQLVESGGGLVQAGGSLRLSCAASGITFTSYVMGWYRQAPGKERELVAAIRWSGGRTYYADSVKGRFTISRDNAKITVYLQMNSLKPEDTAVYYCNRVTRSHVDYWGQGTQVTLSS | high polyreactivity |
| QVQLVESGGGLVQAGGSLRLSCAASGRTFGRYAMGWYRQAPGKERELVATITRGDSTYYADSVKGRFTISRDNAKNKVYLQMNSLKPEDTAVYYCAADWHRWYLDYDYWGQGTQVTVSS | low polyreactivity |
| QVQLVESGGALVQAGGSLRLSCAASGSIFDHNAMGWYRQAPGKERELVAAITWSGTSTYYADSVKGRFTISRDNAKNTVYLQMNSLIPEETAVYYCAAYLYGAVRAYPYRWGRYNYWGQGTQVTVSS | high polyreactivity |
| QVQLVESGGGLVQAGGSLRLSCAASGFTFYYNAMGWYRQAPGKERELVATISGSGGRTYYADSVKGRFTISRDNAKNTVYLQMNSLKPEDTAVYYCAARYVWSRYGYWGQGTQVTVSS | high polyreactivity |
| QVQLVESGGGLVQAGGSLRLSCAASGRTFQWYTMGWYRQAPGKERELVAAISLSGTSTYYADSVKGRFTISRDNAKNTVYLQMNSLNPEDTAVYYCAAEDIGRYYRLDYWGQGTQVTVSS | low polyreactivity |
| QVQLEESGGGLVQAGGSLRLSCAASGRTINGNTMGWYRQAPGKERELVAVIDWSGGSTYYADSVKGRFTISRDNAKNTVYLQMNSLKPEDTAVYYWNAETRDPILYGEYDYWGQGTQVTVSS | low polyreactivity |
| QDQLVQSGGGLVQAGGSLRLSCDASGSTLNWYAMGRYRQAPGKERELVAVITSSGVSTYYADSVKGRFTISRDNAKNTVYLQMNSLKPEDTAVYYCNAKWYRWQRGTVKYDYWGQGTQVTVSS | low polyreactivity |
| QVQLVESGGGLVQAGGSLRLSCAASGRTFFPYAMGWYRQAPGKERELVAAITGSGSSTNYADSVKGRFTISRDNAKNTVYLQMTRLKPVDTAVYYCAKPYYRLEDYWGQGTQVTVSS | low polyreactivity |
| QLQLVESGGGLVQAGGSLRLSCAASGSTFWRYAMGWYRQAPGKERELVAAISWNGGSTYYADSVKGRFTISRDNAKNTVYLQMNSLKPEDTAVYYCAADYWFRYGTYEYWGQGTQGTVSS | high polyreactivity |
| QDQLVESGGGLVQAGRSLRLSCAASGRTFRTYTMGWYRQAPGKERELVAAISRGGSTNYADSVKGRFTISRDNEKNTVYLQMNSLKPEDTAVYYCNAKASFCSPYDYWGQGTQVTVSS | high polyreactivity |
| QVQLVESGGGLVKAGGSLRLTCAASGIILRANVMGWYRQAAGKERELLAAISGSGGRTYYADSVKGRFTISRDNAKNSVYLPMNSLKPEDTAVYYCNTPYGLHQAYPYDYWGLGTQVTVSS | high polyreactivity |
